Source: the supplement of paper PMC10724198
± gives the standard deviation of the averaged measurements.

System: Saccharomyces cerevisiae
Assay: protein stability index of tFT-peptide fusion (C-terminal peptide) (PSI (0-1 scale)); higher = more stable (slower turnover)
Conditions: genetic background: wild type; temperature: 30 C
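Further: PSI is a weighted mean of sequencing reads over stability bins, variants kept only with over 10 reads, mCherry proximal and sfGFP distal, peptide attached via GGGS linker.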

| Sequence | protein stability index |
| --- | --- |
| LVGWVCRERELG | 0.718 ± 0.06 |
| LRCLLAHIAGRG | 0.67065 ± 0.00044 |
| TPPLALPAPCST | 0.679 ± 0.035 |
| FGWKTGGRGTVM | 0.742 ± 0.04 |
| VSRVDGAGHSAV | 0.66 ± 0.0088 |
| MSCLSDFPVCFL | 0.726 ± 0.037 |
| SVMFSSLTRPPL | 0.65 ± 0.11 |
| ECESGKFSLGGT | 0.68 ± 0.02 |
| RGVGCDMGGDGG | 0.65 ± 0.042 |
| LSTHAPPTRLRL | 0.677 ± 0.016 |
| DENEKIKKVKVK | 0.754 ± 0.02 |
| KNTKRQIKKNKK | 0.662 ± 0.17 |
| FAFPQASHPVRI | 0.664 ± 0.063 |
| SEVRGRERLAKC | 0.662 ± 0.041 |
| KRNKDYGSFEVT | 0.629 ± 0.029 |
| PPPGAPAPPPSS | 0.692 ± 0.12 |
| GIVGCDFLLFYF | 0.698 ± 0.018 |
| NLGRGYLVFRGM | 0.709 ± 0.062 |
| CGLFFSCVGVSG | 0.6411 ± 0.005 |
| GGTAYFSNRGWA | 0.595 ± 0.036 |
| WLVGGGTVAHSP | 0.77 ± 0.088 |
| CSRTIGGFLWDQ | 0.6994 ± 0.0054 |
| PYFFSPIFTRTP | 0.712 ± 0.027 |
| SLAPLPARAPPL | 0.725 ± 0.018 |
| APASSSAHTPFP | 0.723 ± 0.019 |
| LVDKGSADVLDD | 0.632 ± 0.048 |

| Sequence | protein stability index |
| --- | --- |
| GIGLVIEDKLLL | 0.683 ± 0.042 |
| RPYKINNNIEVK | 0.676 ± 0.01 |
| NSLGRRRSYPTL | 0.839 ± 0.039 |
| VGDGAVGKTRGD | 0.681 ± 0.039 |
| KKTPKKKHKKKR | 0.679 ± 0.12 |
| RNARSPACRTRR | 0.7481 ± 0.0052 |
| YMAGGQCDRLPG | 0.677 ± 0.055 |
| VSVLCGSRLAFE | 0.685 ± 0.04 |
| FGFSSGRVRQRV | 0.754 ± 0.011 |
| YYCLRVRTINRR | 0.703 ± 0.011 |
| LLPSLFLLPPSA | 0.743 ± 0.094 |
| LVLFSRCSPFFL | 0.659 ± 0.024 |
| GPSGGSGGGGVG | 0.597 ± 0.049 |
| RMNSDMKDTEAQ | 0.65 ± 0.0075 |
| HKTNTSRKSRRT | 0.737 ± 0.12 |
| RLFGFGEQKIEE | 0.695 ± 0.021 |
| VVSGIFQVLATC | 0.614 ± 0.084 |
| RLCPNSITLPSL | 0.7156 ± 0.0018 |
| ENANWHSKNMSK | 0.723 ± 0.071 |
| GAGVSELCGAGW | 0.713 ± 0.11 |
| LPSGVPPPPPLP | 0.695 ± 0.063 |
| AAHRRRRSPPRP | 0.5909 ± 0.0014 |
| GCGGRTAAWGGG | 0.655 ± 0.024 |
| KKNKKNKKKKKN | 0.63 ± 0.082 |
| VWFLSYLSVIFP | 0.58 ± 0.04 |
| VSGSTGVWCRWG | 0.668 ± 0.048 |

| Sequence | protein stability index |
| --- | --- |
| PYRLPRSLLFFP | 0.6688 ± 0.0045 |
| WLVADWLLALFW | 0.627 ± 0.019 |
| GMQVRNTKERRG | 0.714 ± 0.02 |
| TDLGYGRLGGWV | 0.682 ± 0.083 |
| QPPSCTSRPPYR | 0.718 ± 0.096 |
| GVLCGQGRAGAA | 0.7 ± 0.014 |
| VRCWEDGFLDSS | 0.7293 ± 0.0042 |
| SPPFLLPFFPTP | 0.68 ± 0.043 |
| PPPGRRRLRGPT | 0.705 ± 0.04 |
| KKKKKEQKTNQT | 0.697 ± 0.022 |
| EQSWAIQKVRQG | 0.737 ± 0.025 |
| FSPTPSRLSCDR | 0.728 ± 0.027 |
| IVRENGKDVGVG | 0.506 ± 0.014 |
| PPLPSFILSPRA | 0.705 ± 0.027 |
| AQPIPTLYRAPP | 0.729 ± 0.049 |
| EGQARRAGRQGR | 0.7349 ± 0.0053 |
| SACCNFAPAFGQ | 0.662 ± 0.019 |
| PSPPVPPLPPVF | 0.55 ± 0.032 |
| LYDCQHTFILSR | 0.643 ± 0.047 |
| PPRPPHPAPSPH | 0.638 ± 0.024 |
| GHNTPRRVMSRC | 0.689 ± 0.037 |
| PPPPLSPPPAPA | 0.682 ± 0.048 |
| LRRKTIEVSGLA | 0.573 ± 0.026 |
| SRHPPPPVSPHP | 0.727 ± 0.064 |
| CGWSQLCRDSES | 0.675 ± 0.042 |
| SLLSCDETEFSS | 0.614 ± 0.051 |

| Sequence | protein stability index |
| --- | --- |
| RAADGWGVLCGV | 0.679 ± 0.095 |
| SYKIDYIDIRVG | 0.59 ± 0.029 |
| FAGGPSIAAHVL | 0.712 ± 0.2 |
| GACFLGGRLCGR | 0.686 ± 0.024 |
| PVPVLGPESSVH | 0.67 ± 0.023 |
| DCMSSVFQSPPG | 0.693 ± 0.01 |
| GRLPAYIHATRA | 0.63128 ± 0.00047 |
| SPPLSPPLPSRP | 0.7016 ± 0.0064 |
| PLPPHAPPNSAP | 0.656 ± 0.079 |
| LLLPPRPPPSVP | 0.742 ± 0.15 |
| HGLPSFANPGNF | 0.716 ± 0.0095 |
| PRTLRHSGRLAE | 0.705 ± 0.016 |
| AWLPVLPLVSFF | 0.621 ± 0.062 |
| GVVCWRFLLADV | 0.596 ± 0.028 |
| SPSPPPPPPPPL | 0.6877 ± 0.0022 |
| PTRPPNEPTVHP | 0.659 ± 0.066 |
| GIMFVSEPVLSS | 0.664 ± 0.0025 |
| GVPAPVFCRSIF | 0.618 ± 0.015 |
| DPKNEINAKENI | 0.689 ± 0.069 |
| QFLGVGCLRGKR | 0.692 ± 0.037 |
| LGHQFKGTILRV | 0.73 ± 0.059 |
| CFPSSVPFPSLL | 0.778 ± 0.058 |
| KFLISIWGGTRG | 0.6118 ± 0.0025 |
